T1: (GA)15: H-CHHHHHH(GA)15-OH
T1 construct: synthetic, not coupled to BSA; also called poly-GA DPR protein peptide
T1 peptide: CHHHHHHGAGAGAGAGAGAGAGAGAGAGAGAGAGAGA

T2: GA10: H-(GA)10HHHHHH-NH2 (C-terminal amide)
T2 peptide: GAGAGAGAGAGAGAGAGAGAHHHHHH

T3: GA20: H-(GA)20HHHHHH-NH2 (C-terminal amide)
T3 peptide: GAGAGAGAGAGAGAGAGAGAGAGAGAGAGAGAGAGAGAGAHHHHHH

T4: (PR)15: H-C(PR)15-OH
T4 construct: synthetic, not coupled to BSA; also called poly-PR DPR protein peptide
T4 peptide: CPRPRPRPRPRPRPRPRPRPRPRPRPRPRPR

T5: (GR)15: H-C(GR)15-OH
T5 construct: synthetic, not coupled to BSA; also called poly-GR DPR protein peptide
T5 peptide: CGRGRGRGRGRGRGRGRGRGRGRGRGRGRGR

T6: (PA)15: H-C(PA)15-OH
T6 construct: synthetic, not coupled to BSA; also called poly-PA DPR protein peptide
T6 peptide: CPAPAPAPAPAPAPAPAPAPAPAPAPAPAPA

T7: (GP)15: H-C(GP)15-OH
T7 construct: synthetic, not coupled to BSA; also called poly-GP DPR protein peptide
T7 peptide: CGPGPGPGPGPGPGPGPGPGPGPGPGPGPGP

B1: NI-308.15O7 (antibody, V domains shown)
VH: QVQLVESGGGVVQPGRSLRLSCAASGFTFSNHAMHWVRQAPGKGLEWVAVISYDGENTYYADSIEGRFTISRDNFKNTLFLQMYSLTADDTAMYFCARGGRRGHFTSYYLDYWGQGTLVTVSS
VL: CDIQMTQSPSSLSASVGDRVTITCRASQNIDKYLNWYQQIPGKAPKLLIYAASSLHSGVPSRFSGSGSGTDFSLTISSLQPEDFAIYYCQQSYSSFRTFGQGTKLEIK
B2: NI-308.6B11 (antibody, V domains shown)
VH: EVQLVQSGAEVKRPGASVKVSCKVSGYTLTELSMHWVRQAPGKGLEWMGGFDPEDGETVYAQKFQGRVTMTEDTSTDTAYMELSSLRSEDTALYHCATYGSSWHWNEGNEGSYYFDYWGQGTLVTVSS
VL: CDIQMTQSPSSLSASVGDRVTITCQASQDISIYLNWYQQKPGKAPKLLIYDASNLETGVPSRFSGSGSGTDFTFTISGLQPEDVARYYCQQYDDLPITFGQGTRLEIK
notes: Recombinant complete human IgG1, kappa
B3: NI-308.45C2 (antibody, V domains shown)
VH: QLQLQESGPGLVKPSQILSLTCAISGDSVFSNSAAWNWIRQSPSRGLEWLGRTYYRSKWDNDYAPSVKSRISINPDTSKNQFSLQLNSVTPEDTAVYYCAREVAYCGGDCYSVSFDYWGQGTLVTVSS
VL: not shown
notes: as for B2
B4: NI-308.24E11 (antibody, V domains shown)
VH: QVQLQESGPGLVKPSETLSLTCTVSTTSLRSYFWSWIRQPPGKGLEWIGYVYYSGSTIYNPSLKNRVTISIDTSKNQFSLNLRSVTAADTAMYFCARGVPAETDARDFPPYYFDHWGQGTLVTVSS
VL: CDIQLTQSPSSLSASVGNRITFTCQASQDIRYYLNWYQQKPGKAPKLLIYDVSNLDTGVPPRFSGSGSGTNFTFTISSLQPEDIAVYYCQQYEGLPVTFGGGTKVEIK
notes: as for B2
B5: NI-308.46E9 (antibody, V domains shown)
VH: QVQLQESGPGLVKPSETLSLTCTVSGASISGSTYYWGWIRQPPGKGLEYIGRIYYSGSTYYNPSLKSRATISVDTSKNQLSLTLSSVTAADTAVYYCVRPFYAGSGNSPFDYWGQGTLVTVSS
VL: CEIVLTQSPATVSVSPGERATLSCRASQSVSTNLAWYQQKPGQPPRLLIYGASTRATGIPARFSGSGSGAEFTLTISSLQSEDFVVYYCQQYNNWPPAFGGGTKVEIK
notes: as for B2
B6: NI-308.4M1 (antibody, V domains shown)
VH: EVQLVETGGGVVQPGGSLRLSCEASGFTIGTYAMHWVRQFPGKGLDWVAVISFDGTTEYYTDAVKGRFTISRDNAKNTLYLQMNYLRGDDTAIYFCARDFTSSGETGSWTQVPDLWGQGTLVTVSS
VL: CEIVMTQSPATLSLSPGERATLSCRASQSVTKYLAWYQQKPGQAPRLLIYDVSYRAAGTPARFSGSGSGTDFTLTISSLEPEDFAVYYCHQRSSWPPVTFGGGTKVEIK
notes: as for B2

T9 sequence (Q13148 whole entry): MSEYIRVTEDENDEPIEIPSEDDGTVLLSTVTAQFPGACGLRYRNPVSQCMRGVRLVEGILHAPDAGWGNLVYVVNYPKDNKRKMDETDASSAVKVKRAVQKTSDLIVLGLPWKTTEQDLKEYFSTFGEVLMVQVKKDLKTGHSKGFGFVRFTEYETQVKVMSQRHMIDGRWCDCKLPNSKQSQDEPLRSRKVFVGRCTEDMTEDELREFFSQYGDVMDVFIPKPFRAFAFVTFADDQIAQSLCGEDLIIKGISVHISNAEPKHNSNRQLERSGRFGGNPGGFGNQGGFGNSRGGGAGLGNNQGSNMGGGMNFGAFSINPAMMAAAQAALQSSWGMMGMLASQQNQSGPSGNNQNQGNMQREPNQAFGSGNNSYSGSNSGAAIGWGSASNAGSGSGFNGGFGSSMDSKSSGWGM

The target in one assay is T1, (GA)15: H-CHHHHHH(GA)15-OH. Put plainly: indirect ELISA, coated uncoupled peptide. The method, then: (§1) In brief, dipeptide repeat proteins were synthesized and purified by Schafer-N(Copenhagen, Denmark): (GA)₁₅: H-CHHHHHH(GA)₁₅-OH; (GP)₁₅: H-C(GP)₁₅-OH; (GR)₁₅: H-C(GR)₁₅-OH; (PA)₁₅: H-C(PA)₁₅-OH; (PR)₁₅: H—C(PR)₁₅-OH. 96-well microplates (Corning Incorporated, Corning, USA) were coated with dipeptide repeat protein peptides at a concentration of either 5 μg/ml or 20 μg/ml in coating buffer (15 mM Na₂CO₃, 35 mM NaHCO₃, pH 9.42). Non-specific binding sites were blocked for 1 h at room temperature with PBS/0.1% Tween®-20 containing 2% BSA (Sigma-Aldrich, Buchs, Switzerland). Primary antibodies were diluted to the indicated concentrations and incubated for 1 h at room temperature, followed by incubation with a donkey anti-human IgG Fcγ-specific antibody conjugated with HRP (Jackson ImmunoResearch Laboratories, Inc., West Grove, USA). Binding was determined by measurement of HRP activity in a standard colorimetric assay. EC₅₀ values were estimated by non-linear regression using GraphPad Prism software (San Diego, USA). The binding specificity and EC₅₀ of human-derived antibodies for C9orf72 dipeptide repeat protein peptides (GA)₁₅, (GP)₁₅, (GR)₁₅, (PA)₁₅ and (PR)₁₅ were determined by indirect ELISA.
Molecule B1 had an EC50 of 0.48 nM.

Molecule B2 yielded an EC50 of around 38.4 nM.

For the next assay, the target named is T2, GA10: H-(GA)10HHHHHH-NH2. Put plainly: indirect ELISA, coated His-tagged peptide. The source says:
(§2) In brief, dipeptide repeat proteins were synthesized and purified by Schafer-N (Copenhagen, Denmark): GA₂₀: H-(GA)₂₀HHHHHH-NH₂; GA₁₀: H-(GA)₁₀HHHHHH-NH₂; GA₆: H-(GA)₆HHHHHH-NH₂; GA₅: H-(GA)₅HHHHHH-NH₂; GA₄: H-(GA)₄HHHHHH-NH₂; GA₃: H-(GA)₃HHHHHH-NH₂; GA₂: H-(GA)₂HHHHHH-NH₂; GP₂₀: H-(GP)₂₀HHHHHH-NH₂; GP₁₀: H-(GP)₁₀HHHHHH-NH₂; GP₆: H-(GP)₆HHHHHH-NH₂; GP₅: H-(GP)₅HHHHHH-NH₂; GP₄: H-(GP)₄HHHHHH-NH₂; GP₃: H-(GP)₃HHHHHH-NH₂; GP₂: H-(GP)₂HHHHHH-NH₂. GR₂₀: H-(GR)₂₀HHHHHH-NH₂; GR₁₀: H-(GR)₁₀HHHHHH-NH₂; GR₆: H-(GR)₆HHHHHH-NH₂; GR₅: H-(GR)₅HHHHHH-NH₂; GR₄: H-(GR)₄HHHHHH-NH₂; GR₃: H-(GR)₃HHHHHH-NH₂; GR₂: H-(GR)₂HHHHHH-NH₂; PA₂₀: H-(PA)₂₀HHHHHH-NH₂; PA₁₀: H-(PA)₁₀HHHHHH-NH₂; PA₆: H-(PA)₆HHHHHH-NH₂; PA₅: H-(PA)₅HHHHHH-NH₂; PA₄: H-(PA)₄HHHHHH-NH₂; PA₃: H-(PA)₃HHHHHH-NH₂; PA₂: H-(PA)₂HHHHHH-NH₂; PR₂₀: H-(PR)₂₀HHHHHH-NH₂; PR₁₀: H-(PR)₁₀HHHHHH-NH₂; PR₆: H-(PR)₆HHHHHH-NH₂; PR₅: H-(PR)₅HHHHHH-NH₂; PR₄: H-(PR)₄HHHHHH-NH₂; PR₃: H-(PR)₃HHHHHH-NH₂; PR₂: H-(PR)₂HHHHHH-NH₂. 96-well microplates (Corning Incorporated, Corning, USA) were coated with dipeptide repeat protein peptides at a concentration of 50 μg/ml in coating buffer (15 mM Na₂CO₃, 35 mM NaHCO₃, pH 9.42). Non-specific binding sites were blocked for 1 h at room temperature with PBS/0.1% Tween®-20 containing 2% BSA (Sigma-Aldrich, Buchs, Switzerland). Primary antibodies were diluted to the indicated concentrations and incubated 1 h at room temperature, followed by incubation with a donkey anti-human IgG Fcγ-specific antibody conjugated with HRP (Jackson ImmunoResearch Laboratories, Inc., West Grove, USA). Binding was determined by measurement of HRP activity in a standard colorimetric assay. EC₅₀ values were estimated by non-linear regression using GraphPad Prism software (San Diego, USA).
B2: the EC50 was 27.7 nM.

With B3, it took 7.6 nM to reach a half-maximal effect (EC50).

A further assay addresses T3, GA20: H-(GA)20HHHHHH-NH2. Put plainly: indirect ELISA, coated His-tagged peptide.
Source text: as §2
For the molecule B1, a half-maximal effect (EC50) was put at 0.54 nM.

B2 had an EC50 of 33.6 nM.

For the molecule B3, the EC50 worked out at 9.6 nM.

The target in another assay is T8, full-length amyloid precursor protein (UniProt P05067 18-770, limits assumed).
T8 construct: also called flAPP
T8 sequence (P05067 18-770 limits assumed): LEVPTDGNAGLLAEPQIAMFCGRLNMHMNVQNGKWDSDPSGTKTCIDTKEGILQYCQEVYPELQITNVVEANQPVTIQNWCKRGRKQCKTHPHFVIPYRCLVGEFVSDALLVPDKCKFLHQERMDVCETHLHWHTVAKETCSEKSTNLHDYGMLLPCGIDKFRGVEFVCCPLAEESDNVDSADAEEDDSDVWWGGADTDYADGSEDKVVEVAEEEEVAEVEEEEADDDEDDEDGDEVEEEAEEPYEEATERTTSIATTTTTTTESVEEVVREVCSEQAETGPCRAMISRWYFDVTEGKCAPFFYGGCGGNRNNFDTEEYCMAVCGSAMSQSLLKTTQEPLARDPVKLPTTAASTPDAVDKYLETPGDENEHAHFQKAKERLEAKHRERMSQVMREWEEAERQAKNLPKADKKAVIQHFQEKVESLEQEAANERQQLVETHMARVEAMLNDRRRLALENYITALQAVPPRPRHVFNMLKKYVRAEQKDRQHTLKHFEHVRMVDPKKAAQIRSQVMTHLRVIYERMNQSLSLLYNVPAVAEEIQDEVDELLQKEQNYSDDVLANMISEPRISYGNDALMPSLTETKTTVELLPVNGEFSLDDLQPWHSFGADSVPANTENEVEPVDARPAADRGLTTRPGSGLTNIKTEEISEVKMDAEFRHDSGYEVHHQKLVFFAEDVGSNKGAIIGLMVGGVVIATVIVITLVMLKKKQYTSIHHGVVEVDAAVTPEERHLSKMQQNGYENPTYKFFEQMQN
The assay can be described thus: indirect ELISA, coated protein. How it is done: (§3) 96-well microplates (Corning) were coated with different target proteins at a concentration of 1-10 μg/ml in coating buffer (15 mM Na₂CO₃, 35 mM NaHCO₃, pH 9.42). Non-specific binding sites were blocked for 1 h at RT with PBS/0.1% Tween®-20 containing 2% BSA (Sigma-Aldrich, Buchs, Switzerland). […] Binding was determined using donkey anti-human IgG Fcγ-specific antibody conjugated with HRP (Jackson ImmunoResearch Laboratories, Inc., West Grove, USA) followed by measurement of HRP activity in a standard colorimetric assay. Signals for target protein were calculated in fold increase above median.
Turning to B4, the binding result is “no binding (tested: 20 nM)”.

Turning to B1, the binding result is on record as “no binding (tested: 20 nM)”.

As to B2, the binding result is “no binding (tested: 20 nM)”.

With B3, the binding result is recorded as “no binding (tested: 20 nM)”.

Another assay deals with transthyrethin (UniProt P02766 21-147). The assay can be described thus: indirect ELISA, coated protein. How it is done: as §3
On to B4, for which the binding result is “no binding (tested: 20 nM)”.

Consider B1, for which the binding result was “no binding (tested: 20 nM)”.

In the case of B2, the binding result is listed as “no binding (tested: 20 nM)”.

On to B3, for which the binding result is given as “no binding (tested: 20 nM)”.

Another assay concerns the target T9, transactive response DNA binding protein 43 (UniProt Q13148 1-414, limits assumed).
T9 construct: also called TDP-43
The assay can be described thus: indirect ELISA, coated protein. How it is done:
as §3
On to B4, for which the binding result is listed as “no binding (tested: 20 nM)”.

Regarding B1, the binding result is reported as “no binding (tested: 20 nM)”.

For B2, the binding result was “no binding (tested: 20 nM)”.

For the molecule B3, the binding result is recorded as “no binding (tested: 20 nM)”.

In the next assay the target is Tau (UniProt P10636-8 1-441, limits assumed). Put plainly: indirect ELISA, coated protein. The method, then: as §3
Chain of Tau (P10636 other isoform, or with tags, fused parts or gaps limits assumed): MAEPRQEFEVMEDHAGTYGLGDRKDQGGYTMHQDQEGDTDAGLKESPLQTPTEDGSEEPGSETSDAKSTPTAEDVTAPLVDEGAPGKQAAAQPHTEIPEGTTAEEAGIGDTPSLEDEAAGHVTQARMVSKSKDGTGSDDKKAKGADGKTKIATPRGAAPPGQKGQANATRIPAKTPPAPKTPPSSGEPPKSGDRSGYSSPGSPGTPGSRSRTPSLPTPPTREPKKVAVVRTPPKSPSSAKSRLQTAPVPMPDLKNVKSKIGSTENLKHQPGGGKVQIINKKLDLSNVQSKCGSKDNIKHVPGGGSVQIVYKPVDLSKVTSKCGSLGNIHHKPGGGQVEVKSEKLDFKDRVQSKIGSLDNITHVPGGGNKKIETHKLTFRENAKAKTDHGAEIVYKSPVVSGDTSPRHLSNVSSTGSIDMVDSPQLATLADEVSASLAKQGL
B4: the binding result is “no binding (tested: 20 nM)”.

B1: the binding result is on record as “no binding (tested: 20 nM)”.

In the case of B2, the binding result is on record as “no binding (tested: 20 nM)”.

As to B3, the binding result is “no binding (tested: 20 nM)”.

A further assay has as its target T4, (PR)15: H-C(PR)15-OH. The assay can be described thus: indirect ELISA, coated peptide. How it is done: as §1
As to B5, the binding result was “no binding”.

In the case of B1, the binding result is listed as “no binding”.

For the molecule B3, the binding result is “no binding”.

In the case of B6, the binding result is listed as “no binding”.

The target in another assay is T5, (GR)15: H-C(GR)15-OH. The assay can be described thus: indirect ELISA, coated peptide. The method, then: as §1
In the case of B4, the binding result is recorded as “no binding”.

Consider B5, for which the binding result is listed as “no binding”.

In the case of B1, the binding result is “no binding”.

For B3, the binding result is reported as “no binding”.

Turning to B6, the binding result is on record as “no binding”.

The target of a further assay is T6, (PA)15: H-C(PA)15-OH. The assay can be described thus: indirect ELISA, coated peptide. The method, then:
as §1
On to B4, for which the binding result was “no binding”.

As to B5, the binding result is given as “no binding”.

In the case of B1, the binding result was “no binding”.

As to B2, the binding result is on record as “no binding”.

Consider B3, for which the binding result is “no binding”.

Another assay addresses T7, (GP)15: H-C(GP)15-OH. The assay can be described thus: indirect ELISA, coated peptide. How it is done:
as §1
In the case of B4, the binding result was “no binding”.

For the molecule B1, the binding result is recorded as “no binding”.

For the molecule B2, the binding result is recorded as “no binding”.

On to B3, for which the binding result was “no binding”.

For the molecule B6, the binding result is reported as “no binding”.
